Measured values as given in patent publication US8008452B2, “Phosphorylated Ndr kinase” (Novartis Forschungesstiftung, Zweigniederlassung Friedrich …, priority 2002, dated 2011).

Legend:
[1] = test system: GST-NDR1; experiment: GST-NDR1 in vitro autophosphorylation, incorporated 32P by Cerenkov counting; format: biochemical, human
Protocol: BL21-DE3-pRep4 E. coli strain was transformed with the pGEX-2T_NDR1 wild type or mutant plasmids. BL21-DE3 is a protease-deficient E. coli strain and pRep4 is a Laclq repressor-bearing plasmid both available commercially. Optionally, if desired, an E. coli strain comprising GroESL can be used, which expresses a chaperone protein that stabilizes the kinase. Mid-logarithmic phase cells were induced with 0.5 mM isopropyl beta-D-thiogalactopyranoside (IPTG) for 4 hours at 30° C. Bacteria were lysed using a French press in the presence of 1 mg/ml lysosyme, and the fusion proteins were purified on glutathione-agarose (Amersham Pharmacia Biotech) as described by the manufacturers. Recombinant proteins were assayed for kinase activity as described below and autophosphorylation was determined after SDS-PAGE separation either by Cerenkov counting or by exposure to a PhosphorImager screen followed by analysis with ImageQuant software (Molecular Dynamics).
In brief, 1 microgram of purified GST-NDR1 (in solution ˜0.5 microM) wild type, kinase dead (K118A), and alanine mutants of phosphorylation residues Thr74, Ser281, and Thr444 were autophosphorylated for 2 hours in vitro without further additions or in the presence of 1 mM CaCl2 and 10 microM bovine S100B. Proteins were visualized on SDS gels using Coomassie Blue R-350 stained SDS-PAGE gel, and [gamma-^32P]ATP-labelled proteins were visualized by autoradiography of the gels developed on a Phosphorimager screen. The amount of incorporated ^32P was quantified by Cerenkov counting.

[2] = test system: GST-NDR1; experiment: Immunodetection of GST-NDR1 phosphorylated on Ser281 or Thr444 after in vitro autophosphorylation; format: biochemical, human; details: in vitro autophosphorylation with or without Ca2+/S100B
Protocol: Either 1 microgram GST-NDR1 or HA-NDR1 immunoprecipitated from 100 microgram COS-1 detergent extracts as described above was separated on 10% SDS-PAGE and immunoblotted 2 h at RT or overnight at 4° C. with anti-Ser281P antisera (1:1000) in the presence of 50 microg/ml competing unphosphopeptide or anti-Thr444P purified antibody (1:500). Both antibodies were detected with horseradish peroxidase-conjugated donkey anti-rabbit Ig antibody (Amersham biosciences) and developed by ECL (chemiluminescence; Amersham Pharmacia Biotech).
To reliably quantify the effect of S100B on NDR1 phosphorylation status, rabbit polyclonal antibodies were raised against phosphoepitopes comprising Ser281 or Thr444. GST-NDR1 mutants were treated essentially as described in Example 2 and detected either with anti-NDR1_C-term antiserum or polyclonal antibodies recognising NDR1 phosphorylated on Ser281 or Thr444.

B1: S281A: NDR1 alanine mutant of phosphorylation residue Ser281; GST fusion or HA-tagged (protein)
chain: MAMTGSTPCSSMSNHTKERVTMTKVTLENFYSNLIAQHEEREMRQKKLEKVMEEEGLKDEEKRLRRSAHARKETEFLRLKRTRLGLEDFESLKVIGRGAFGEVRLVQKKDTGHVYAMKILRKADMLEKEQVGHIRAERDILVEADSLWVVKMFYSFQDKLNLYLIMEFLPGGDMMTLLMKKDTLTEEETQFYIAETVLAIDSIHQLGFIHRDIKPDNLLLDSKGHVKLSDFGLCTGLKKAHRTEFYRNLNHSLPSDFTFQNMNSKRKAETWKRNRRQLAFATVGTPDYIAPEVFMQTGYNKLCDWWSLGVIMYEMLIGYPPFCSETPQETYKKVMNWKETLTFPPEVPISEKAKDLILRFCCEWEHRIGAPGVEEIKSNSFFEGVDWEHIRERPAAISIEIKSIDDTSNFDEFPESDILKPTVATSNHPETDYKNKDWVFINYTYKRFEGLTARGAIPSYMKAAK
modifications: left off: small tags and cut ends
notes: NDR1 alanine mutant of phosphorylation residue Ser281; GST fusion or HA-tagged
[1]; GST-NDR1 variant, 1 microgram, autophosphorylated 2 hours without further additions, pmol ATP/pmol GST-NDR1
  amount of incorporated 32P (autophosphorylation), −S100B: 0.0192
[1]; GST-NDR1 variant, 2 hours in the presence of 1 mM CaCl2 and 10 microM bovine S100B, in pmol ATP/pmol GST-NDR1
  amount of incorporated 32P (autophosphorylation), +S100B: 0.028
[1]; compared with wild type
  autophosphorylation rate of GST-NDR1 mutant (in words): dramatically reduced autophosphorylation rate
[2]
  phosphorylation of GST-NDR1 on Ser281 and Thr444 (phosphospecific antibodies): entirely abolishes the autophosphorylation on Thr444
